Data published in the supplement of paper PMC7125110.
± gives the standard error. Variants at the floor of the assay were thinned out.

B1: glmS ribozyme (parent)
chain: AUAAAAGCGCCAGAACUACAGAAAUGUAGUUGACGAGGAGGAGGUUUAUCGAAUUUUCGGCGGAUGCCUCCAAA

Variants of: B1
Assay: self-cleavage kobs at 10000 uM GlcN6P; higher = faster cleavage; RNA array
Conditions: with glucosamine-6-phosphate
In short: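 Glucosamine-6-phosphate, from 40 μM to 10 mM in HEPES/KCl/Mg(OAc)2 buffer, was flowed over sequenced MiSeq chips carrying barcoded ribozyme variants transcribed in situ by E. coli RNA polymerase. A hybridised Cy3 probe tracked the variants at 37 °C as tiles were imaged over ~14 h. kobs, kcat and KM were obtained by fitting normalised per-tile medians to exponential decays and then applying weighted Michaelis–Menten fits across concentrations.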

Variant | self-cleavage kobs at 10000 uM GlcN6P [s⁻¹]
AUAAAAGCGCCAGAACUACAGAAAUGUAGUUGACGAGGACGAGGUUUAUCGAAUUUUCCGCGGAGGCCUCCAAA | < 1e-05
AUAAAAGCGCCAGAACUACAGAAAUGUAGUUGACGGGGAGGAGGUAUAUCGAAUUUUAGGCGGAUGCCUCCAAA | < 1e-05
AUAAAAGCGCCAGAACUACAGAAAUGUAGUUGACGAGUUGGCGGUUUUUCGAAUUUUCGGCGGAUGCCUCCAAA | < 1e-05
AUAAAAGCGCCAGAACUACAGAAAUGUAGUUGACGUGGAGGAGGUUUAACGAAUUUUCGGCGGAUGCCUCCAAA | 8.19e-05 ± 9.1e-06
AUAAAAGCGCCAGAACUACAGAAAUGUAGUUGACGAGUAGGAGGUUUAUCGAUUUUUCGGCGGAUGCCGCCAAA | 0.000134 ± 3.5e-05
AUAAAAGCGCCAGAACUACAGAAAUGUAGUUGACGUGGAAGACGUUUAUCGGAUUUUCGGCGGAUGCCUCCAAA | 0.00106 ± 0.00036
AUAAAAGCGCCAGAACUACAGAAAUGUAGUUGACGAGGUGGGGGUCUAUCGAAUUUUCGGCGGAUGCCUCCAAA | 0.00379 ± 0.00069
AUAAAAGCGCCAGAACUACAGAAAUGUAGUUGACGACGAGGAGGUUUAUCGAAUUUUCGGCGGCUGGCUCCAAA | < 1e-05
AUAAAAGCGCCAGAACUACAGAAAUGUAGUUGACGAGUAGAAGGGUUAUCGAAUUAUCUGCGGAUGCCUCCAAA | < 1e-05
AUAAAAGCGCCAGAACUACAGAAAUGUAGUUGACGAGUAUCAGGUUCAUCGAAUUUUCCGCGGAUGCGUCCAAA | < 1e-05
AUAAAAGCGCCAGAACUACAGAAAUGUAGUUGACGAGGACGAGGUUUAUCCAAUUUACGGCGGAUGCCUCCAAA | < 1e-05
AUAAAAGCGCCAGAACUACAGAAAUGUAGUUGACGAGAAGGAGGUGUAUCGAAUUUGAGGCGGAUGCCUCCAAA | < 1e-05
AUAAAAGCGCCAGAACUACAGAAAUGUAGUUGACGAGGUGGAGGUUUAUCGUAUUGUCGGCGGAUGCCUCCAAA | 8.75e-05 ± 1.8e-05
AUAAAAGCGCCAGAACUACAGAAAUGUAGUUGACGAGGUGGAAGUUCAUCGAAUUUUCAGCGGAUGUCUCCAAA | < 1e-05
AUAAAAGCGCCAGAACUACAGAAAUGUAGUUGACGACGAGGAGGUUUAUCGAAAUUUCGGCGGAUGCCUCCAAA | 4.2e-05 ± 1e-05
AUAAAAGCGCCAGAACUACAGAAAUGUAGUUGACGAGGUGGAGGUUUAUCGAAUCUUCGGCGGACGCCUCCAAA | 0.00435 ± 0.00052
AUAAAAGCGCCAGAACUACAGAAAUGUAGUUGACGCGCAGGAGGUUUAUCGAAUUUUCGGCGGCUGCCUCCAAA | < 1e-05
AUAAAAGCGCCAGAACUACAGAAAUGUAGUUGACGAGGGGGAGGUUUAUCGAAAUUUCGGCUGAUACCUCCAAA | < 1e-05
AUAAAAGCGCCAGAACUACAGAAAUGUAGUUGACGAGAAGGAGGUUUAUCGAAUUUCCGGCGGUUGCCUCCAAA | < 1e-05
AUAAAAGCGCCAGAACUACAGAAAUGUAGUUGACGACGAGGAGGUUUGUCGAAUUUUCGGCUGAUGCCUCCAAA | < 1e-05
AUAAAAGCGCCAGAACUACAGAAAUGUAGUUGACCAGGAGGAGGUUUGUCGAAUUUUCUACGGAUGCCUCCAAA | < 1e-05
AUAAAAGCGCCAGAACUACAGAAAUGUAGUUGACGGGGAUGAGGUUUAUCGAAUUUUCGGCGGAUGCAUCCAAA | < 1e-05
AUAAAAGCGCCAGAACUACAGAAAUGUAGUUGACGUGGAGGACGUUUAUCGAACCUUCGGCGCAUGCCUCAAAA | < 1e-05
AUAAAAGCGCCAGAACUACAGAAAUGUAGUUGACGAGGGGGAGGUUUAUCGAAUUUUCGACGGAUGCCUCCAAA | 2.33e-05 ± 1.2e-05
AUAAAAGCGCCAGAACUACAGAAAUGUAGUUGACUAGGAGUAGGUUUAUCGAAUUUUCGGCGGAUGGCUCCAAA | < 1e-05

Variant | self-cleavage kobs at 10000 uM GlcN6P [s⁻¹]
AUAAAAGCGCCAGAACUACAGAAAUGUAGUUGACGAGGAAGAGUUUGAUCGAAUUUUCGUUGGAUGCUUCCAAA | < 1e-05
AUAAAAGCGCCAGAACUACAGAAAUGUAGUUGACGAGGAGGGGGUUUAUCGAAUAUUCGGCGGAUGCGUCCAAA | 7.44e-05 ± 2e-05
AUAAAAGCGCCAGAACUACAGAAAUGUAGUUGACCAGGAGGAGGUUUAUCUAAUUUUCGGCUGAUGCCUCCAAA | < 1e-05
AUAAAAGCGCCAGAACUACAGAAAUGUAGUUGACGACGAGGAGGUUUAUCGAAUUUUCUGGGGAUGCCUCCAAA | < 1e-05
AUAAAAGCGCCAGAACUACAGAAAUGUAGUUGACGAUAAGGAGGUUUAUCGAAUUUUCGGCGGAUGUCUCCAAA | < 1e-05
AUAAAAGCGCCAGAACUACAGAAAUGUAGUUGACGAGGAGGCGGUUUACCGAAUUUACGGCGGAUGCCUCCAAA | < 1e-05
AUAAAAGCGCCAGAACUACAGAAAUGUAGUUGACUAGGAGGAGGUUAAUCGAAUUUUCGGUGGAUGCCUCCAAA | < 1e-05
AUAAAAGCGCCAGAACUACAGAAAUGUAGUUGACGCGGAGGAGGUAUAUCGAAUUUUAGGCGGAUGCCUCCAAA | < 1e-05
AUAAAAGCGCCAGAACUACAGAAAUGUAGUUGACGAGGAGGGGGUUUAUCGAAUUUUGGGCGGAUGCCCCCAAA | 0.000133 ± 3.8e-05
AUAAAAGCGCCAGAACUACAGAAAUGUAGUUGACGAGGGGGAGGGUUAUCGAAUUUUCGGCGGAUGCCUACAAA | 0.000127 ± 4.2e-05
AUAAAAGCGCCAGAACUACAGAAAUGUAGUUGACGAGGGGGAGGCUUAUCGAAUUUUCGGCGGAUGACUCCAAA | 0.00692 ± 0.0024
AUAAAAGCGCCAGAACUACAGAAAUGUAGUUGACGACGAGGAGGAUUAUCGAACUUUCGGCGCAUGCCUCCAAA | < 1e-05
AUAAAAGCGCCAGAACUACAGAAAUGUAGUUGACGAGGAUGAUGUUUAUCGAACUUUCGGCGGAUGCCUCCAAA | < 1e-05
AUAAAAGCGCCAGAACUACAGAAAUGUAGUUGACCAGGAGGGGGGUUAUCGAAUUUUCGGCGGAUGCCUCCAAA | < 1e-05
AUAAAAGCGCCAGAACUACAGAAAUGUAGUUGACAAGGAGGAGGUUUAUCGAAGUUUCGGCCGAUGCCUCCAAA | < 1e-05
AUAAAAGCGCCAGAACUACAGAAAUGUAGUUGACGAGGAGGCGGUUUAUUGAAUUUUCGGCGGAUGCAUACAAA | < 1e-05
AUAAAAGCGCCAGAACUACAGAAAUGUAGUUGACGGGGAGGAGGUUUAUCGAAUUUUCGGCGGCGGCCUCCAAA | < 1e-05
AUAAAAGCGCCAGAACUACAGAAAUGUAGUUGACGAGGCGGAGGUUCAUCGAAUUUUCGGCGGAUGCCUUCAAA | 0.000412 ± 0.0001
AUAAAAGCGCCAGAACUACAGAAAUGUAGUUGACGAGGCGGAGGUUUAUCGAAUGUUCGGCGGAUGCCUUCAAA | 0.000211 ± 4e-05
AUAAAAGCGCCAGAACUACAGAAAUGUAGUUGACGAGGAGCAGGUUUAUCGAAUUUGCGGCGGAUGCCUCCAAA | < 1e-05
AUAAAAGCGCCAGAACUACAGAAAUGUAGUUGACGAGGACAAGGUUUAUUGAAUUUUCGGCGGAUGCCUCCAAA | < 1e-05
AUAAAAGCGCCAGAACUACAGAAAUGUAGUUGACGAGGACGAGGAUUAGCGAAUUUUCGGCGGAUGCCUCCAAA | 5.2e-05 ± 1.9e-05
AUAAAAGCGCCAGAACUACAGAAAUGUAGUUGACGCCGAGGAGGUUUAUCGAUUUUUCGGCGGAUGCCCCCAAA | < 1e-05
AUAAAAGCGCCAGAACUACAGAAAUGUAGUUGACGAGGAGGGGGUUUAUCGAAUUUUAGGCGGAUGUCUCCAAA | 0.00012 ± 1.9e-05
AUAAAAGCGCCAGAACUACAGAAAUGUAGUUGACAAGUAGGAGGUUUAUCGACUUUUCGGCGGAUGCCUUCAAA | < 1e-05

Variant | self-cleavage kobs at 10000 uM GlcN6P [s⁻¹]
AUAAAAGCGCCAGAACUACAGAAAUGUAGUUGACGACGAGGAGGUUUAUCGAAUGUUCGGCGGAUGCCUCCAAA | 3.62e-05 ± 8.4e-06
AUAAAAGCGCCAGAACUACAGAAAUGUAGUUGACGACGAGGAGGUUUAUCGAAUAUUCGGCGGAUGCCUCCAAA | 4.97e-05 ± 1e-05
AUAAAAGCGCCAGAACUACAGAAAUGUAGUUGACGAGGAGAAGGCUUAUCGAUUUUUCGGCGGAUGCCUCCAAA | 0.000355 ± 8.4e-05
AUAAAAGCGCCAGAACUACAGAAAUGUAGUUGACGAGGAGGGGGAUUAUCGAAUUUUCGGCGGACGCCUCCAAA | 0.00105 ± 0.00028
AUAAAAGCGCCAGAACUACAGAAAUGUAGUUGACGAGGUGGAGGUUUGUCGAAUUUUCGACGGAUGCCUCCAAA | < 1e-05
AUAAAAGCGCCAGAACUACAGAAAUGUAGUUGACGAGGAGAAGGUUUAUCGAAUUCUCGGCGGAUGCCUCCAAA | 3.52e-05 ± 1.7e-05
AUAAAAGCGCCAGAACUACAGAAAUGUAGUUGACCAGGAGGAGGUUUAUCGAAUUUUCAGUGGAUGCCUCCAAA | < 1e-05
AUAAAAGCGCCAGAACUACAGAAAUGUAGUUGACGUGGAGGAGGUUUAUCUAAUUUUCGGCGGAUGCGUCCAAA | 4.33e-05 ± 1.7e-05
AUAAAAGCGCCAGAACUACAGAAAUGUAGUUGACCAGUAGGAAGUUUAUCCAAUUUUCGCCGGAUGCCUCCAAA | < 1e-05
AUAAAAGCGCCAGAACUACAGAAAUGUAGUUGAUGAGGAGGAGUUUUAUCGAAAUUUCGGCGCAUGCCUCCAAA | < 1e-05
AUAAAAGCGCCAGAACUACAGAAAUGUAGUUGACGAGGAAGAGGUUUAUCGAAUUUUCGGCGGUUGCCUCCAAA | 2.07e-05 ± 9.5e-06
AUAAAAGCGCCAGAACUACAGAAAUGUAGUUGACGAGGAGGGGGUGUAUCGAAUUCUCGGCGGAUGCCUCCAAA | 0.00095 ± 0.0002
AUAAAAGCGCCAGAACUACAGAAAUGUAGUUGACGAGGUGGAGGUAUAUCGAGUUUUCGGCGGAUGCCUCCAAA | 0.00108 ± 0.00026
AUAAAAGCGCCAGAACUACAGAAAUGUAGUUGACGAGUAGGAGGUUUAUCGAAUUCUCGGCGGAUGCCUCCAAA | < 1e-05
AUAAAAGCGCCAGAACUACAGAAAUGUAGUUGACGAGGAGAAGGUUUAUCGUAUUUUCGGCGGAUGCCUCCAAA | 9.26e-05 ± 1.6e-05
AUAAAAGCGCCAGAACUACAGAAAUGUAGUUGACGAGGAGUAGGUUUAUCGAAUUUCCGGCGGCUGCCUCCAAA | < 1e-05
AUAAAAGCGCCAGAACUACAGAAAUGUAGUUGACCAUGAGGAGGUUUAUCGAAUUUUCGGCGGAUGCGUCCAAA | 7.56e-05 ± 2.4e-05
AUAAAAGCGCCAGAACUACAGAAAUGUAGUUGACGAGGAGUAGGUUUAUCGAAUUUUCGGCGGAUGUCUCCAAA | 2.83e-05 ± 1.1e-05
AUAAAAGCGCCAGAACUACAGAAAUGUAGUUGACGCGGAGGAGGUUUAUCGUAUUUUUGGCGAAUGCCUCCAAA | < 1e-05
AUAAAAGCGCCAGAACUACAGAAAUGUAGUUGACGACGAGGAGGUUUAUCGAAUUUUCGGCGGGUGCCUUCAAA | 4.49e-05 ± 1.6e-05
AUAAAAGCGCCAGAACUACAGAAAUGUAGUUGACGAGGGGGAGGUUUAUCGAAUUUACGGCGGAUGCUUCCAAA | 0.000176 ± 4e-05
AUAAAAGCGCCAGAACUACAGAAAUGUAGUUGACGAGGAGCAGGUUUAUCGAAUUCUCGGCGGAUGCCUCCAAA | 3.26e-05 ± 8.9e-06
AUAAAAGCGCCAGAACUACAGAAAUGUAGUUGACGCGGAGGAGGUUUUUCGAAUUUUCGGCGAAUGCCUCCAAA | < 1e-05
AUAAAAGCGCCAGAACUACAGAAAUGUAGUUGAUGAGGAGGAGGAUUAUCGAAUUUUCGGUGGAUGCCUCCAAA | < 1e-05
